Biological target: fibrin (human) (UniProt P02671)
Sequence of UniProt P02671 (P02671 36-866, chain 1 of 3): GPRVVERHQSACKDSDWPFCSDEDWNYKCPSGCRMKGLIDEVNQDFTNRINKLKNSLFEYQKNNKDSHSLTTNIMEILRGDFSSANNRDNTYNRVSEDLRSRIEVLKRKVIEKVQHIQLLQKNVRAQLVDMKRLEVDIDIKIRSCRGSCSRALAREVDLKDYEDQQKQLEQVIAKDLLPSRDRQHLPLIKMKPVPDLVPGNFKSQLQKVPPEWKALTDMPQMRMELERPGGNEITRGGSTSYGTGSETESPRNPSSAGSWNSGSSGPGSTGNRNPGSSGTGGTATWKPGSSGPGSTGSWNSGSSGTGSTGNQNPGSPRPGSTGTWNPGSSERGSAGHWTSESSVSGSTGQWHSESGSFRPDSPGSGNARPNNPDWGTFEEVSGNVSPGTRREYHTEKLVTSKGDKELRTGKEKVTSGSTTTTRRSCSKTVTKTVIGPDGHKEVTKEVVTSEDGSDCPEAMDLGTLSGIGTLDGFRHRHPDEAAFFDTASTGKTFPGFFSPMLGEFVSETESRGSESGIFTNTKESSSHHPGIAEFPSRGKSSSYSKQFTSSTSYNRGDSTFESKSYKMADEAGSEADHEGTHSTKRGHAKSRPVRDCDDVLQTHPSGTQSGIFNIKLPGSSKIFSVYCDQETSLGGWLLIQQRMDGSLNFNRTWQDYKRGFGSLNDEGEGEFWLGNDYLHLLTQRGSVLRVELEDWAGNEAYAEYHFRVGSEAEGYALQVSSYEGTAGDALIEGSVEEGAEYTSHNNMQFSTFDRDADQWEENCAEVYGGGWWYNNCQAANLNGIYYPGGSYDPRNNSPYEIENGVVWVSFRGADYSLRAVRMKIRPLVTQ
Sequence of UniProt P02671 (P02675 45-491, chain 2 of 3, further chain): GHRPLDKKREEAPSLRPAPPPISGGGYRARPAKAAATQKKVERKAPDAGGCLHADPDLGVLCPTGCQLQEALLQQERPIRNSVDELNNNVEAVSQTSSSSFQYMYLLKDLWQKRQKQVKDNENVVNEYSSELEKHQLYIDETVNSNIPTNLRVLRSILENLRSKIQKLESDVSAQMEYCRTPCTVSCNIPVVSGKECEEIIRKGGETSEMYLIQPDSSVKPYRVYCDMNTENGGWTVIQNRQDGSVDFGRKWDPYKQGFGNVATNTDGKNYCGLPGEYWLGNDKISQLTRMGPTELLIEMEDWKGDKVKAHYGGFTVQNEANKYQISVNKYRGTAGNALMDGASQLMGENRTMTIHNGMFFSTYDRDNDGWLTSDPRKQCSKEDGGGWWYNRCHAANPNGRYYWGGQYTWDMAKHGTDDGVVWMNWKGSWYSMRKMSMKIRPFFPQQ
Sequence of UniProt P02671 (P02679 27-453, chain 3 of 3, further chain): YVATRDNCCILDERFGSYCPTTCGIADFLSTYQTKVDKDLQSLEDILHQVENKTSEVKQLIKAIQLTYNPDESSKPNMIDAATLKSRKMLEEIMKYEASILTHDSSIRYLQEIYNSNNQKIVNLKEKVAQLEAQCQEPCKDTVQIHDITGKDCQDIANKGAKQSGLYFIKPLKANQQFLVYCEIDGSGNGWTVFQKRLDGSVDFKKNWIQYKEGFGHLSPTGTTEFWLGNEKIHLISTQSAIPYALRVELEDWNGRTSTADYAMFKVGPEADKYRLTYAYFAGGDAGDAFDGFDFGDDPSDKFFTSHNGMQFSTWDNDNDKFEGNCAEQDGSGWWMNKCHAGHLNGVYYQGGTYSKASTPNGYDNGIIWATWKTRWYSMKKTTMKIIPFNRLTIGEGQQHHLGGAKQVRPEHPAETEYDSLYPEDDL

| Substance | stimulation factor of S-2765 hydrolysis: Kcat/Km with fibrin cofactor (100 μg/mL) over Kcat/Km without cofactor [fold] |
| --- | --- |
| ANGlyα2+1 (DSPAα2 N155S, added N-glycosylation site N153) (from UniProt P15638 37-477) (enzyme) | 3.1 |
| QNGlyα2 (DSPAα2 N185Q-N398Q) (from UniProt P15638 37-477) (enzyme) | 1.7 |
| QNGlyα2-1 (DSPAα2 N185Q) (from UniProt P15638 37-477) (enzyme) | 2 |
| QNGlyα2-2 (DSPAα2 N398Q) (from UniProt P15638 37-477) (enzyme) | 7.4 |
| recombinant DSPAα2 (bat plasminogen activator α2), wild type (from UniProt P15638 37-477) (enzyme) | 11.3 |

Reference: publication PMC9497888
